Laboratory results published in patent US12098206B2, “PDGF receptor antibody and use thereof” (Seoul National University R&DB Foundation, priority 2018, dated 2024).

Columns and labels:
[1] = molecular target: T1, mPDGFR-β and cotinine (Mus musculus, UniProt P05622); test: Enzyme immunoassay, simultaneous binding to cotinine and mPDGFR-β; details: cotinine-BSA coated wells, then mPDGFR-β-Fc chimera; FIG. 3d
T1 construct: mPDGFR-β
T1 sequence (P05622 32-530): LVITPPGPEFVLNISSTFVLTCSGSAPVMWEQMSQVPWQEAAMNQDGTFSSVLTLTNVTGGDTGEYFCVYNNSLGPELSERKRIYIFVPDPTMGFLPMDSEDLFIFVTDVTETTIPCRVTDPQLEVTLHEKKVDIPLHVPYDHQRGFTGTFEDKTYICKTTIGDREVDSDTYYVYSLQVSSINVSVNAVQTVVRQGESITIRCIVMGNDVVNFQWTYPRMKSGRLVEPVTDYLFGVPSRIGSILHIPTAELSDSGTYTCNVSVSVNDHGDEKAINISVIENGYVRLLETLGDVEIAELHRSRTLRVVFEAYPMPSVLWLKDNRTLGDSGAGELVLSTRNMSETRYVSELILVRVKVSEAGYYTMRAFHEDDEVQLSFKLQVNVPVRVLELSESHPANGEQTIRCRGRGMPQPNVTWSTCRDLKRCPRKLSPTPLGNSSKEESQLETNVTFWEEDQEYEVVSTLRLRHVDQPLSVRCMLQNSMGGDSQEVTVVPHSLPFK
Procedure: In order to confirm whether the bispecific antibody has simultaneous binding ability to both cotinine and mPDGFR-β, anti-mPDGFR-β x cotinine scFv-Cκ-scFv fusion protein was reacted in wells coated with cotinine-BSA. Washing was performed for each process, and mPDGFR-β-Fc chimeric protein and HRP-anti human Fc antibody were sequentially incubated.

[2] = molecular target: T2, mPDGFR-β (Mus musculus, UniProt P05622); test: Competition enzyme immunoassay with mPDGF-BB; type: binding; details: mPDGF-BB 100 nM; FIG. 4a
T2 construct: mPDGFR-β
T2 sequence (P05622 32-530): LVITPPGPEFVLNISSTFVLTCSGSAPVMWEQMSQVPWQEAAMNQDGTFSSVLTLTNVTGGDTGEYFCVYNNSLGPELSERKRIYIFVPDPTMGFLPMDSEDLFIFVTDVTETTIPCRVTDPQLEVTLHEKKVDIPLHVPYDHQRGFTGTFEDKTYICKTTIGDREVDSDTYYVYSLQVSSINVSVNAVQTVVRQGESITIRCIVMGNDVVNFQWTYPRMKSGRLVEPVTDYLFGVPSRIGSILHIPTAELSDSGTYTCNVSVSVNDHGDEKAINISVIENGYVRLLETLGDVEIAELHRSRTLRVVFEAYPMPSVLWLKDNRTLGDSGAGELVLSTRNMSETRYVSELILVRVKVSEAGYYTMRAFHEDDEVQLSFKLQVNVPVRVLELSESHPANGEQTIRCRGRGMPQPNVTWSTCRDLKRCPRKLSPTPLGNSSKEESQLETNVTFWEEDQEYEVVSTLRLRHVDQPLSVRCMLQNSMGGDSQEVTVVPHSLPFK
Procedure: In order to confirm the competition between the bispecific antibody according to the present invention and mPDGF-BB, the microtiter plate was coated with mPDGFR-β-Fc chimera as mentioned above and then blocked. The microtiter plate was treated with various concentrations of the bispecific antibody (0.06 nM-1 μM) with or without addition of mPDGF-BB (100 nM), and then incubated at 37° C. for 2 hours. The washing, incubation, and detection were performed in the same manner as the enzyme immunoassay described above.
A competition enzyme immunoassay was developed to examine the effect of mPDGF-BB on the binding ability of anti-mPDGFR-β x cotinine scFv-Cκ-scFv fusion protein. The serially diluted bispecific antibodies (anti-mPDGFR-β scFv-Cκ-cotinine scFv) were incubated on wells coated with mPDGFR-β-Fc chimeric fusion protein with or without mPDGF-BB. HRP-anti-human Cκ antibody was incubated and then TMB was added. […] However, the binding ability of PRb-CN01 was not inhibited, so it confirmed that PRb-CN01 binds to mPDGFR-β in a noncompetitive manner to mPDGF-BB.

[3] = system: MOLT-4 cells; test: Flow cytometry binding to MOLT-4 cells not expressing mPDGFR-β; details: 100 nM; FIG. 6
Procedure: The present inventors tested the binding ability of the bispecific antibody of scFv-Cκ-scFv fusion proteins in MOLT-4 cells not expressing mPDGFR-β by flow cytometry analysis. MOLT-4 cells were cultured with a bispecific antibody of scFv-Cκ-scFv fusion protein (100 nM) at 4° C. for 1 hour. After washing as described above, the detection was conducted by treating with an APC-anti human Cκ antibody. The MOLT-4 cells were purchased from the Korea Cell Line Bank and prepared by culturing in RPMI-1640 (Welgene, Seoul, Korea) medium added by 10% fetal bovine serum, 1% penicillin, and streptomycin.

[4] = system: neovascularization; test: Oxygen-induced retinal disease animal model; type: in vivo, C57BL/6 mice; details: complex with cot-duo; 1 uL into the vitreous cavity, 1 nM and 10 nM; FIG. 9
Procedure: C57BL/6 mice on 7th day after birth were reared in a high-concentration oxygen (75%) chamber for 5 days, and transferred to a normal oxygen breeding facility on 12th day to create an environment for retinopathy of premature baby.
On the 14th day after birth, 1 uL of each bispecific antibody scFv-Cκ-scFv, and the complex of the bispecific antibody scFv-Cκ-scFv fusion protein and cot-duo were injected into the vitreous cavity at a concentration of 1 nM and 10 nM, respectively. To label blood vessels, isolectin B4-594 (1:100; 121413, Invitrogen) was treated on the retinal flat mount.

[5] = system: neovascularization; test: Laser-induced choroidal neovascularization animal model; type: in vivo, mice; details: complex with cot-duo; 1 uL into the vitreous cavity, 10 nM; FIG. 10
Procedure: After anesthetizing the mice, the retina of the mouse was irradiated with an indirect ophthalmoscope system (ILOODA) laser in a 300 um spot size with 400 mW intensity, 50 ms duration, and 810 nm wavelength to induce destruction of Bruch's membrane.
After 4 days of laser irradiation, 1 uL of each bispecific antibody scFv-Cκ-scFv, and complex of the bispecific antibody scFv-Cκ-scFv fusion protein and the cot-duo was injected into the vitreous cavity at a concentration of 10 nM. After 7 days of laser irradiation, the eyes were removed to obtain retinal pigment epithelial-choroid-scleral tissue, and immunofluorescence staining was performed with isolectin B4 antibody conjugated to Alexa Fluor 594 to determine the extent of the choroidal neovascular membrane. The neovascularization inhibition ability of the scFv-Cκ-scFv fusion protein and the cot-duo complex was confirmed. To quantitatively analyze the extent of the choroidal neovascular membrane, the ImageJ program (NIH) was used.

B1: PRb-CN01: anti-mPDGFR-β chicken scFv clone (VH SEQ ID NO 7, VL SEQ ID NO 8), tested as scFv-Cκ-anti-cotinine scFv bispecific antibody (antibody, V domains shown)
VH: AVTLDESGGGLQTPGGALSLVCKASGFTFSDRAMHWVRQAPGKGLEWVGLITNTGGSTNYGAAVKGRATISRDNGQSTVRLQLNNLRAEDTGTYYCTRGVGSWAHGGRIDAWGHGTEVIVSS
VL: LTQPSSVSANPGETVKITCSGGSGSYGWFQQKSPGSAPVTVIYSNNQRPSDIPSRFSGSKSGSTNTLTITGVQAEDEAIYYCGTRDSSYVGIFGAGTTLTVL
modifications: VH of PRb-CN01; VL of PRb-CN01
For B1, the “simultaneous binding to mPDGFR-β and cotinine” value [1] was “simultaneously bound to mPDGFR-β and cotinine”, the “binding ability to mPDGFR-β in the presence of mPDGF-BB” value [2] was “not inhibited” and the “binding to MOLT-4 cells” value [3] was “neither PRb-CN01 nor the anti-HER2 bispecific antibody of scFv-Cκ-scFv fusion antibody binds”. For the same molecule, the inhibition of neovascularization [4] was “inhibited neovascularization in a concentration-dependent manner” and the inhibition of neovascularization [5] was “inhibited neovascularization”.
